Laboratory results taken from patent US20170130226, “APTAMERS AGAINST EGFR AND THERAPEUTIC USES THEREOF” (ALTERMUNE LIMITED, published 2017).

Biological target: EGFR (UniProt P00533 P00533:25-645)
Assay: SPR; PBS, 5 mM MgCl2, 20 C
Conditions: tags: R&D Systems; amine-coupled to sensor chip; label: 5' biotin
Procedure: Aptamer binding to EGFR recombinant protein was assessed by surface plasmon resonance (SPR). SPR experiments were performed on a 404pi system (BiOptix, Boulder, Colo.), at a constant temperature of 20° C., 20 μL min⁻¹ flow rate, using running buffer (degassed PBS, 5 mM MgCl₂, 0.05% Tween) for all coupling and capture steps. 0.1 M N-hydroxysuccinimide (NHS) in MOPS, 0.4 M 1-ethyl-3-(3-dimethylaminopropyl) carbodiimide hydrochloride (EDC), 1 M ethanolamine hydrochloride (pH 8.5) and 10 mM sodium acetate pH 4.5, were from Sigma (St. Louis, Mo.). EGFR was obtained from R&D Systems (Minneapolis, Minn.). Three 96 well plates of oligonucleotides were synthesized by solid phase phosphoramidite chemistry by Boston Open Labs (Cambridge, Mass.) with a 5′ biotin.
The surface in all four channels of a CDM150 sensor chip (BiOptix) was activated by injecting 140 μL of a 1:1 mixture (v/v) of EDC and NHS. Then 350 μL of 285 nM EGFR in 10 mM sodium acetate pH 4.5 was injected in all 4 channels and covalently bound to a density of ˜8000 Response Units (RU) over 1050 sec. Finally, the surface was blocked by an injection of 200 μL 1 M ethanolamine hydrochloride.

Binding result, binds:
GGACGGAUUUAAUCGCCGUAGAAAAGCAUGUCAAAGCCGGAACCGUCC (ssRNA, 2'-F all C and U; 2'-OMe A7) [ALT102064.01]
GGACGGAUUUAAUCGCCGUAGAAAAGCAUGUCAAAGCCGGAACCGUCC (ssRNA, 2'-F all C and U; 2'-OMe A41) [ALT102098.01]
GGACGGAUUUAAUCGCCGUAGAAAAGCAUGUCAAAGCCGGAACCGUCC (ssRNA, 2'-F all C and U; 2'-OMe G39) [ALT102096.01]
GGACGGAUUUAAUCGCCGUAGAAAAGCAUGUCAAAGCCGGAACCGUCC (ssRNA, 2'-F all C and U and G2) [ALT102107.01]
GGACGGAUUUAAUCGCCGUAGAAAAGCAUGUCAAAGCCGGAACCGUCC (ssRNA, 2'-F all C and U; 2'-OMe G2) [ALT102059.01]
GGACGGAUUUAAUCGCCGUAGAAAAGCAUGUCAAAGCCGGAACCGUCC (ssRNA, 2'-F all C and U and A11) [ALT102112.01]
GGACGGAUUUAAUCGCCGUAGAAAAGCAUGUCAAAGCCGGAACCGUCC (ssRNA, 2'-F all C and U and G15) [ALT102114.01]
GGACGGAUUUAAUCGCCGUAGAAAAGCAUGUCAAAGCCGGAACCGUCC (ssRNA, 2'-F all C and U; 2'-OMe G26) [ALT102083.01]
GGACGGAUUUAAUCGCCGUAGAAAAGCAUGUCAAAGCCGGAACCGUCC (ssRNA, 2'-F all C and U; 2'-OMe G45) [ALT102102.01]
GGACGGAUUUAAUCGCCGUAGAAAAGCAUGUCAAAGCCGGAACCGUCC (ssRNA, 2'-F all C and U; 2'-OMe G5) [ALT102062.01]
GGACGGAUUUAAUCGCCGUAGAAAAGCAUGUCAAAGCCGGAACCGUCC (ssRNA, 2'-F all C and U except 2'-OMe C47) [ALT102104.01]
GGACGGAUUUAAUCGCCGUAGAAAAGCAUGUCAAAGCCGGAACCGUCC (ssRNA, 2'-F all C and U and A20) [ALT102116.01]
GGACGGAUUUAAUCGCCGUAGAAAAGCAUGUCAAAGCCGGAACCGUCC (ssRNA, 2'-F all C and U and G6) [ALT102110.01]
GGACGGAUUUAAUCGCCGUAGAAAAGCAUGUCAAAGCCGGAACCGUCC (ssRNA, 2'-F all C and U and G26) [ALT102122.01]
GGACGGAUUUAAUCGCCGUAGAAAAGCAUGUCAAAGCCGGAACCGUCC (ssRNA, 2'-F all C and U and A7) [ALT102111.01]
GGACGGAUUUAAUCGCCGUAGAAAAGCAUGUCAAAGCCGGAACCGUCC (ssRNA, 2'-F all C and U except 2'-OMe U19) [ALT102076.01]
GGACGGAUUUAAUCGCCGUAGAAAAGCAUGUCAAAGCCGGAACCGUCC (ssRNA, 2'-F all C and U except 2'-OMe U8) [ALT102065.01]
GGACGGAUUUAAUCGCCGUAGAAAAGCAUGUCAAAGCCGGAACCGUCC (ssRNA, 2'-F all C and U; 2'-OMe G1) [ALT102058.01]
GGACGGAUUUAAUCGCCGUAGAAAAGCAUGUCAAAGCCGGAACCGUCC (ssRNA, 2'-F all C and U and A24) [ALT102120.01]
GGACGGAUUUAAUCGCCGUAGAAAAGCAUGUCAAAGCCGGAACCGUCC (ssRNA, 2'-F all C and U; 2'-OMe A24) [ALT102081.01]
GGACGGAUUUAAUCGCCGUAGAAAAGCAUGUCAAAGCCGGAACCGUCC (ssRNA, 2'-F all C and U; 2'-OMe A3) [ALT102060.01]
GGACGGAUUUAAUCGCCGUAGAAAAGCAUGUCAAAGCCGGAACCGUCC (ssRNA, 2'-F all C and U and A22) [ALT102118.01]
GGACGGAUUUAAUCGCCGUAGAAAAGCAUGUCAAAGCCGGAACCGUCC (ssRNA, 2'-F all C and U and G21) [ALT102117.01]
GGACGGAUUUAAUCGCCGUAGAAAAGCAUGUCAAAGCCGGAACCGUCC (ssRNA, 2'-F all C and U; 2'-OMe G15) [ALT102072.01]
GGACGGAUUUAAUCGCCGUAGAAAAGCAUGUCAAAGCCGGAACCGUCC (ssRNA, 2'-F all C and U and A33) [ALT102125.01]
GGACGGAUUUAAUCGCCGUAGAAAAGCAUGUCAAAGCCGGAACCGUCC (ssRNA, 2'-F all C and U; 2'-OMe G36) [ALT102093.01]
GGACGGAUUUAAUCGCCGUAGAAAAGCAUGUCAAAGCCGGAACCGUCC (ssRNA, 2'-F all C and U; 2'-OMe A20) [ALT102077.01]
GGACGGAUUUAAUCGCCGUAGAAAAGCAUGUCAAAGCCGGAACCGUCC (ssRNA, 2'-F all C and U; 2'-OMe G21) [ALT102078.01]
GGACGGAUUUAAUCGCCGUAGAAAAGCAUGUCAAAGCCGGAACCGUCC (ssRNA, 2'-F all C and U; 2'-OMe G30) [ALT102087.01]
GGACGGAUUUAAUCGCCGUAGAAAAGCAUGUCAAAGCCGGAACCGUCC (ssRNA, 2'-F all C and U except 2'-OMe C38) [ALT102095.01]
GGACGGAUUUAAUCGCCGUAGAAAAGCAUGUCAAAGCCGGAACCGUCC (ssRNA, 2'-F all C and U; 2'-OMe G18) [ALT102075.01]
GGACGGAUUUAAUCGCCGUAGAAAAGCAUGUCAAAGCCGGAACCGUCC (ssRNA, 2'-F all C and U and G5) [ALT102109.01]
GGACGGAUUUAAUCGCCGUAGAAAAGCAUGUCAAAGCCGGAACCGUCC (ssRNA, 2'-F all C and U; 2'-OMe G40) [ALT102097.01]
GGACGGAUUUAAUCGCCGUAGAAAAGCAUGUCAAAGCCGGAACCGUCC (ssRNA, 2'-F all C and U and A3) [ALT102108.01]
GGACGGAUUUAAUCGCCGUAGAAAAGCAUGUCAAAGCCGGAACCGUCC (ssRNA, 2'-F all C and U; 2'-OMe A33) [ALT102090.01]
GGACGGAUUUAAUCGCCGUAGAAAAGCAUGUCAAAGCCGGAACCGUCC (ssRNA, 2'-F all C and U except 2'-OMe U9) [ALT102066.01]
GGACGGAUUUAAUCGCCGUAGAAAAGCAUGUCAAAGCCGGAACCGUCC (ssRNA, 2'-F all C and U except 2'-OMe C27) [ALT102084.01]
GGACGGAUUUAAUCGCCGUAGAAAAGCAUGUCAAAGCCGGAACCGUCC (ssRNA, 2'-F all C and U except 2'-OMe C48) [ALT102105.01]
GGACGGAUUUAAUCGCCGUAGAAAAGCAUGUCAAAGCCGGAACCGUCC (ssRNA, 2'-F all C and U and A25) [ALT102121.01]
GGACGGAUUUAAUCGCCGUAGAAAAGCAUGUCAAAGCCGGAACCGUCC (ssRNA, 2'-F all C and U except 2'-OMe C37) [ALT102094.01]
GGACGGAUUUAAUCGCCGUAGAAAAGCAUGUCAAAGCCGGAACCGUCC (ssRNA, 2'-F all C and U; 2'-OMe A23) [ALT102080.01]
GGACGGAUUUAAUCGCCGUAGAAAAGCAUGUCAAAGCCGGAACCGUCC (ssRNA, 2'-F all C and U except 2'-OMe C16) [ALT102073.01]
GGACGGAUUUAAUCGCCGUAGAAAAGCAUGUCAAAGCCGGAACCGUCC (ssRNA, 2'-F all C and U except 2'-OMe U46) [ALT102103.01]
GGACGGAUUUAAUCGCCGUAGAAAAGCAUGUCAAAGCCGGAACCGUCC (ssRNA, 2'-F all C and U and A28) [ALT102123.01]
GGACGGAUUUAAUCGCCGUAGAAAAGCAUGUCAAAGCCGGAACCGUCC (ssRNA, 2'-F all C and U; 2'-OMe G6) [ALT102063.01]
GGACGGAUUUAAUCGCCGUAGAAAAGCAUGUCAAAGCCGGAACCGUCC (ssRNA, 2'-F all C and U and A23) [ALT102119.01]
GGACGGAUUUAAUCGCCGUAGAAAAGCAUGUCAAAGCCGGAACCGUCC (ssRNA, 2'-F all C and U; 2'-OMe A28) [ALT102085.01]
GGACGGAUUUAAUCGCCGUAGAAAAGCAUGUCAAAGCCGGAACCGUCC (ssRNA, 2'-F all C and U except 2'-OMe C4) [ALT102061.01]
